Molecular target: the molecule itself
Experiment: crystal structure

B1: soluble C terminus (soluble domain, residues 343 to 882) of Medicago truncatula DMI1 (domain or fragment)
chain: SEVIERNHVLILGWSDKLGSLLKQLAIANKSVGGGVIVVLAEKEKEEMEMDIAKLEFDFMGTSVICRSGSPLILADLKKVSVSKARAIIVLAADENADQSDARALRVVLSLAGVKEGLRGHVVVEMSDLDNEPLVKLVGGELIETVVAHDVIGRLMIQCALQPGLAQIWEDILGFENAEFYIKRWPELDDLLFKDILISFPDAIPCGVKVAADGGKIVINPDDNYVLRDGDEVLVIAEDDDTYAPGPLPEVRKGYFPRIRDPPKYPEKILFCGWRRDIDDMIMVLEAFLAPGSELWMFNEVPEKERERKLAAGELDVFGLENIKLVHREGNAVIRRHLESLPLETFDSILILADESVEDSVAHSDSRSLATLLLIRDIQSRRLPYRDTKSTSLRLSGFSHNSWIREMQQASDKSIIISEILDSRTRNLVSVSRISDYVLSNELVSMALAMVAEDKQINRVLEELFAEEGNEMCIKPAEFYLFDQEELCFYDIMIRGRTRKEIVIGYRLANQERAIINPSEKSVPRKWSLDDVFVVLASGE
- stoichiometry N: 4

From paper PMC9407390 (Proceedings of the National Academy of Sciences of the …, 2022)
